“And” between values parts separate entries of the source, which are not always exact repeats. Equal values may be shown once. Non-standard residues stand in square brackets, D forms with d. No end group written: not given here. pY = N[C@@H](Cc1ccc(OP(=O)(O)O)cc1)C(=O)O; Rhodamine = not defined here
Experiments:
Test in all cases: peptide or protein array; SH2/PTB proteins spotted on aldehyde slides, rhodamine peptide titrated in buffer B (20 mM HEPES, 100 mM KCl, 0.1% Tween-20, 5 mM DTT, pH 7.8), 1 h at room temperature; replicate assays
Conditions in all cases: both partners purified
SOCS5 SH2 domain = biological target: T1, SOCS5 SH2 domain (human, UniProt O75159 381-476)
T1 construct: SOCS5, human; source: bacterial expression, purified
T1 sequence (looked up): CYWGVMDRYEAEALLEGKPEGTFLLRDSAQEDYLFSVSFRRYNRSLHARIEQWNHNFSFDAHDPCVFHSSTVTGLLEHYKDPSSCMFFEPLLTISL

ABL2 SH2 domain = biological target: T2, ABL2 SH2 domain (human, UniProt P42684 173-263)
T2 construct: ABL2, human; source: bacterial expression, purified
T2 sequence (looked up): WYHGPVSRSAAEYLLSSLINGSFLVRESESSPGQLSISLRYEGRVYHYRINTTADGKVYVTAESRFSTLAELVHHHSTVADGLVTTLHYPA

FGR SH2 domain = biological target: T3, FGR SH2 domain (human, UniProt P09769 144-241)
T3 construct: FGR, human; source: bacterial expression, purified

[1] = biological target: T4, PIK3R1 tandem SH2 domains (human, UniProt P27986 1-724)
T4 construct: PIK3R1, human; also called PIK3R1-NC; source: bacterial expression, purified
T4 sequence (P27986 whole entry, the tested form may be a part): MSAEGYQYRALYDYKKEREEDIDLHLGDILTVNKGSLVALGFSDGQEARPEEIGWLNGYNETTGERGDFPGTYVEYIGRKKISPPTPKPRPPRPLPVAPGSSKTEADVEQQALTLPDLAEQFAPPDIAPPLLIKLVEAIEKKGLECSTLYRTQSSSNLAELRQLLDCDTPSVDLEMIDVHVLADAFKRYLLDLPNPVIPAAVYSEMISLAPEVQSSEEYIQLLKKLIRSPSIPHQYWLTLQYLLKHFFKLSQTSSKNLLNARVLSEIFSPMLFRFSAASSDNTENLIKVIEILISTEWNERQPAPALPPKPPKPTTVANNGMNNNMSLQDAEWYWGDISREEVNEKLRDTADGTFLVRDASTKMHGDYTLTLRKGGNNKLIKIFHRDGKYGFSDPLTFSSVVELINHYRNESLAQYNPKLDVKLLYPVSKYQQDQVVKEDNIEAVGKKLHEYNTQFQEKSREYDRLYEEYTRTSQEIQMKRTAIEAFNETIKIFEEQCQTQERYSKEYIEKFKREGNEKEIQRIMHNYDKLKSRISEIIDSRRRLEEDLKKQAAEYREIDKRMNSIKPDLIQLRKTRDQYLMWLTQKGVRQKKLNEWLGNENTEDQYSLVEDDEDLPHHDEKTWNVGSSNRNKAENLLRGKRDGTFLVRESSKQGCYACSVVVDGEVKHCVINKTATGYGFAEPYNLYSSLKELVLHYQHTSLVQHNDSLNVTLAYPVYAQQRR

[2] = biological target: T5, RASA1 C-terminal SH2 domain (human)
T5 construct: RASA1, human; source: bacterial expression, purified
T5 sequence (P20936 whole entry, looked up): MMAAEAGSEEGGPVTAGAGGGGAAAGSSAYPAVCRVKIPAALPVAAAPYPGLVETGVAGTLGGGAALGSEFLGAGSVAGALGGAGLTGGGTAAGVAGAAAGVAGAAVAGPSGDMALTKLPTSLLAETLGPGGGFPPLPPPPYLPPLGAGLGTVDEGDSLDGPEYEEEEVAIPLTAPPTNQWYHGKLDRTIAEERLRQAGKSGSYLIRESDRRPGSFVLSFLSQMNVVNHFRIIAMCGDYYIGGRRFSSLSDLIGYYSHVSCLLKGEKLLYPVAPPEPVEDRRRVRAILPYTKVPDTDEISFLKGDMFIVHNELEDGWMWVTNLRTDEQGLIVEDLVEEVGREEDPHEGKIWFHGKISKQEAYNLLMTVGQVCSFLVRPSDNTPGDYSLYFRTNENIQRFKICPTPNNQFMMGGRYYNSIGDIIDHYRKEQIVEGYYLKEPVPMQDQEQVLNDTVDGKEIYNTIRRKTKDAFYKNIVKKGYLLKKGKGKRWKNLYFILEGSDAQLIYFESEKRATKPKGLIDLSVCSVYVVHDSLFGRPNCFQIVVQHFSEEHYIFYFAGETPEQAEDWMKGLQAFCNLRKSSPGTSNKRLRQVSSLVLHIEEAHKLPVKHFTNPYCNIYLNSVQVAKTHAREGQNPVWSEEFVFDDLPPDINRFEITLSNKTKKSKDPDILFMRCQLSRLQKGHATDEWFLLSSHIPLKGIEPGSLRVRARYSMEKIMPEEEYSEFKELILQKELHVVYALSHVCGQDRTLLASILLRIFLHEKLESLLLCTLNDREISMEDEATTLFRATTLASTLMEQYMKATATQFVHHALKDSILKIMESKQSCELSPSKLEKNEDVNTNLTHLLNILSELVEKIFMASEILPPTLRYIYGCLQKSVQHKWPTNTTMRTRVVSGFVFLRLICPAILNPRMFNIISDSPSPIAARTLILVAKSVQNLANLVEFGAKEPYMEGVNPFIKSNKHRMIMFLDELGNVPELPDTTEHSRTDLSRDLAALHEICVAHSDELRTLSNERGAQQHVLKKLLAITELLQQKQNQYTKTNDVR

B1: ErbB2 pY1127 phosphopeptide, rhodamine-labelled, for protein microarrays (peptide)
chain: Rhodamine-ETDG[pY]VAPLTCSD
modifications: reading uncertain
SOCS5 SH2 domain
  Kd: 698 nM
ABL2 SH2 domain
  Kd: 17 nM and 14.6 nM
FGR SH2 domain
  Kd: 5180 nM
[1]
  Kd: 10.9 nM and 10 nM
[2]
  Kd: 1210 nM

From publication PMC3433420, “Comprehensive Binary Interaction Mapping of SH2 Domains via Fluorescence Polarization Reveals Novel Functional Diversification of ErbB Receptors” (PLoS ONE, 2012)
